*1 amine or outer side, *2 acyl side, *3 side chain or, on linkers, in order; H or OH if unused. Where a SMILES comes first, the peptide text is derived from it. Bridges are numbered along the chain shown (N, C = ends). [ ]: non-standard residue; d: D form. Trp(7-Ph) = N[C@@H](Cc1c[nH]c2c(-c3ccccc3)cccc12)C(=O)O; Ala(quinolin-3-yl) = N[C@@H](Cc1cnc2ccccc2c1)C(=O)O; Abu(4-yl) = O=C([C@H](CC[*:3])N[*:1])[*:2]; 2Nal = N[C@@H](Cc1ccc2ccccc2c1)C(=O)O; AEF = NCCOc1ccc(C[C@H](N)C(=O)O)cc1; Pen = CC(C)(S)[C@H](N)C(=O)O; αMeK = C[C@](N)(CCCCN)C(=O)O; Abu = CC[C@H](N)C(=O)O
T1: interleukin-23 receptor (IL-23R), human (human, UniProt Q5VWK5 24-629)
T1 sequence (looked up): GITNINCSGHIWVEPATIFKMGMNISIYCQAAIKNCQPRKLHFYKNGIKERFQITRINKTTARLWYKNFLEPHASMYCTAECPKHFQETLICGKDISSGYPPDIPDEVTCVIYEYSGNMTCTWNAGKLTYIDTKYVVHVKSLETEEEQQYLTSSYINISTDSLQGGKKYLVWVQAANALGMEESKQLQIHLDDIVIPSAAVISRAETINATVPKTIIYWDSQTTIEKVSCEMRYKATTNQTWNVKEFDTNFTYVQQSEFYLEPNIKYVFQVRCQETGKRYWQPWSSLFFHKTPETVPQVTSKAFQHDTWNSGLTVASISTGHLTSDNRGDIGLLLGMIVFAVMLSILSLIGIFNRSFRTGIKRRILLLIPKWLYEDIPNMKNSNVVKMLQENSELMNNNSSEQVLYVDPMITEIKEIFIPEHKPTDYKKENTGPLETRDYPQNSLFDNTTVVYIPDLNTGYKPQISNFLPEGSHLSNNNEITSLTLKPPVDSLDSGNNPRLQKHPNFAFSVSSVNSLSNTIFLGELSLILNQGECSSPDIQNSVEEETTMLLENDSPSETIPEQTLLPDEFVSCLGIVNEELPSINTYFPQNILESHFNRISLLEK

B1: Peptide No. 1 (SEQ ID No. 1) (peptide)
peptide: XNTXKXXXXKNL
modifications: Ac-[Pen]-N-T-[W(7-Ph)]-[Lys(Ac)]-[Pen]-Phe[4-(2-aminoethoxy)]-[2-Nal]-[a-MeLys]-[Lys(Ac)]-N-[(D)Leu]-NH2; N-terminal acetyl, C-terminal amide; cyclized via Pen-Pen disulfide bond
B2: Peptide No. 13 (SEQ ID No. 13) (peptide)
peptide: XNTXKXXXXENK
modifications: Ac-[Pen]-N-T-[W(7-Ph)]-[Lys(Ac)]-[Pen]-Phe[4-(2-aminoethoxy)]-[3Quin]-[THP]-E-N-[(D)Lys]-NH2; N-terminal acetyl, C-terminal amide; cyclized via Pen-Pen disulfide bond
B3: Peptide No. 15 (SEQ ID No. 15) (peptide)
peptide: XNTXKXXXXENL
modifications: Ac-[Pen]-N-T-[W(7-Ph)]-[Lys(Ac)]-[Pen]-Phe[4-(2-aminoethoxy)]-[3Quin]-[THP]-E-N-[(D)Leu]-NH2; N-terminal acetyl, C-terminal amide; cyclized via Pen-Pen disulfide bond
B4: Peptide No. 16 (SEQ ID No. 16) (peptide)
peptide: XNTXKXXXXKNL
modifications: Ac-[Pen]-N-T-[W(7-Ph)]-[Lys(Ac)]-[Pen]-Phe[4-(2-aminoethoxy)]-[3Quin]-[a-MeLys]-[Lys(Ac)]-N-[(D)Leu]-NH2; N-terminal acetyl, C-terminal amide; cyclized via Pen-Pen disulfide bond
B5: Peptide No. 14 (SEQ ID No. 14) (peptide)
peptide: XNTXKXXXXKNK
modifications: Ac-[Pen]-N-T-[W(7-Ph)]-[Lys(Ac)]-[Pen]-Phe[4-(2-aminoethoxy)]-[3Quin]-[a-MeLys]-[Lys(Ac)]-N-[(D)Lys]-NH2; N-terminal acetyl, C-terminal amide; cyclized via Pen-Pen disulfide bond

Tests used:
[1] = system: Natural killer (NK) cells; type: cell-based, human
Excerpt: Where not shown, data was not yet determined.

[2] = Stability in simulated intestinal fluid (SIF); type: in vitro ADME; conditions: 37° C.
How it was run: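 Peptides at 20 μM final were incubated at 37 °C in SIF (potassium phosphate with pancreatin, pH 6.8), and reactions were quenched with acetonitrile/1% formic acid at time points from 0 min to 24 h. Percent remaining relative to time 0 was determined by LC-MS/MS against an internal standard, and half-life came from a first-order decay fit.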

[3] = Stability in human fecal homogenate (anaerobic); type: in vitro ADME; conditions: pH 6.8, 20% human fecal homogenate, 37° C., up to 24 hours, read-out: t1/2: Human Feces anaerobic
How it was run: (§1)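 Supernatant of 20% pooled fecal homogenate in anaerobic growth medium (pH 6.8, bile salts, cysteine) dosed to 20 μM compound, incubated anaerobically at 37 °C. Samples at 0 min–24 h quenched in acetonitrile/methanol, LC/MS/MS vs internal standard; half-life from first-order exponential fit of percent remaining relative to time 0.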

[4] = Stability in cynomolgus monkey fecal homogenate (anaerobic); type: in vitro ADME; conditions: pH 6.8, 20% cynomolgus monkey fecal homogenate, 37° C., up to 24 hours, read-out: t1/2: Monkey Feces anaerobic (converted)
How it was run: as §1

[5] = Stability in rat plasma; type: in vitro ADME; conditions: both sexes, SD rat plasma, EDTA, 37° C., up to 24 hours, read-out: t1/2: Rat Plasma EDTA
How it was run: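 Peptides at 20 μM incubated at 37 °C in pooled SD rat EDTA plasma, sampled up to 24 h and quenched in acidified acetonitrile/methanol containing internal standard. LC-MS peak-area ratios expressed as % remaining versus time zero; half-life from first-order exponential decay fit.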

[6] = biological target: T1, interleukin-23 receptor (IL-23R), human; assay: cell-based or functional assay
[7] = biological target: T1, interleukin-23 receptor (IL-23R), human; assay: cell-based or functional assay; remark: listed apart in the source
[8] = 20% fecal homogenate (supernatant)

Molecule	pStat3 HTRF IC50 (DB cells IL23R pSTAT3 cell assay, 0.5 nM IL-23) [6]	NK Cell Assay IC50 (IFNgamma secretion by human NK cells stimulated with IL-23 and IL-18) [7]	further results
CC(=O)NCCCC[C@@H]1NC(=O)[C@H](Cc2c[nH]c3c(-c4ccccc4)cccc23)NC(=O)[C@H]([C@@H](C)O)NC(=O)[C@H](CCC(N)=O)NC(=O)[C@@H](NC(C)=O)CCSC[C@@H](C(=O)N[C@@H](Cc2ccc(OCCN)cc2)C(=O)N[C@@H](Cc2ccc3ccccc3c2)C(=O)N[C@@](C)(CCCCN)C(=O)N[C@@H](CCCCNC(C)=O)C(=O)N[C@@H](CC(N)=O)C(=O)N[C@H](CC(C)C)C(N)=O)NC1=O [Peptide 18, Ac-[Abu]-Q-T-[W(7-Ph)]-[Lys(Ac)]-[Cys]-Phe[4-(2-aminoethoxy)]-[2-Nal]-[a-MeLys]-[Lys(Ac)]-N-[(D)Leu]-NH2] (Ac-[Abu(4-yl)]QT[Trp(7-Ph)]K(Ac)C[AEF][2Nal][αMeK]K(Ac)N[dL]-NH2; thioether 1-6)			IC50 [1]: 6.28 nM; half-life at 20 μM ([2]; pH 6.8, 100 fold dilution of standard SIF concentration, read-out: SIF t1/2 (converted)): 19.8 h; half-life at 20 μM [3]: > 24 h; half-life at 20 μM [4]: > 24 h; half-life at 20 μM ([5]; pooled): > 24 h
CC(=O)NCCCC[C@@H]1NC(=O)[C@H](Cc2c[nH]c3c(-c4ccccc4)cccc23)NC(=O)[C@H]([C@@H](C)O)NC(=O)[C@H](CC(N)=O)NC(=O)[C@@H](NC(C)=O)C(C)(C)SSC(C)(C)[C@@H](C(=O)N[C@@H](Cc2ccc(OCCN)cc2)C(=O)N[C@@H](Cc2cnc3ccccc3c2)C(=O)N[C@@](C)(CCCCN)C(=O)N[C@@H](CCCCNC(C)=O)C(=O)N[C@@H](CC(N)=O)C(=O)N[C@H](CCCCN)C(N)=O)NC1=O [Peptide 14, Ac-[Pen]-N-T-[W(7-Ph)]-[Lys(Ac)]-[Pen]-Phe[4-(2-aminoethoxy)]-[3Quin]-[a-MeLys]-[Lys(Ac)]-N-[(D)Lys]-NH2] (Ac-[Pen]NT[Trp(7-Ph)]K(Ac)[Pen][AEF][Ala(quinolin-3-yl)][αMeK]K(Ac)N[dK]-NH2; disulfide 1-6)			IC50 [1]: 2.41 nM; SIF t1/2 ([2]; 100 fold dilution of standard SIF concentration, 20 μM): 24 h; half-life at 20 μM [3, 8]: > 24 h; half-life at 20 μM [4, 8]: > 24 h; half-life at 20 μM [5]: > 24 h
B1	0.518 nM	4.3 nM	
B2	0.386 nM	1.55 nM	
Ac-[Abu]QT[Trp(7-Ph)]K(Ac)C[AEF][2Nal][αMeK]K(Ac)N[dL]-NH2 (thioether 1-6) [Peptide No. 18 (SEQ ID No. 18)]	0.993 nM	6.28 nM	
B3	0.186 nM	2.44 nM	
B4	0.365 nM	2.9 nM	
B5	0.437 nM	2.41 nM	

— patent US20230129095A1, “PEPTIDE INHIBITORS OF INTERLEUKIN-23 RECEPTOR AND THEIR USE TO TREAT INFLAMMATORY DISEASES” (Protagonist Therapeutics, Inc., priority 2020, published 2023)
